Experimental data published in patent US5756291.
Where two headings read alike, the source gives them in different places.

Tests used:
[1] = molecular target: thrombin (alpha, Factor IIa) (Homo sapiens) (UniProt P00734+P00734); assay: filter
kallikrein = kallikrein (UniProt P03952+P03952); assay: filter; settings: ~1 uM protein
Sequence of kallikrein (P03952 20-390, chain 1 of 2): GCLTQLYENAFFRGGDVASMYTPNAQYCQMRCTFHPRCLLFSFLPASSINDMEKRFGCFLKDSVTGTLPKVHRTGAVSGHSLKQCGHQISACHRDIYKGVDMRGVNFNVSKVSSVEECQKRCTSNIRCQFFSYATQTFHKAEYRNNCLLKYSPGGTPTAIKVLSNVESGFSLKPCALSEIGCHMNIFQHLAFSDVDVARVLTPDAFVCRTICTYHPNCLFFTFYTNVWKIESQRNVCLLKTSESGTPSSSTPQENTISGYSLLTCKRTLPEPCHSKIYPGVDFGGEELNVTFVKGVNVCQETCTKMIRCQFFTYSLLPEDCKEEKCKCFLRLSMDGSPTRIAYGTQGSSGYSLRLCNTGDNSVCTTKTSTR
Sequence of kallikrein (P03952 391-638, chain 2 of 2): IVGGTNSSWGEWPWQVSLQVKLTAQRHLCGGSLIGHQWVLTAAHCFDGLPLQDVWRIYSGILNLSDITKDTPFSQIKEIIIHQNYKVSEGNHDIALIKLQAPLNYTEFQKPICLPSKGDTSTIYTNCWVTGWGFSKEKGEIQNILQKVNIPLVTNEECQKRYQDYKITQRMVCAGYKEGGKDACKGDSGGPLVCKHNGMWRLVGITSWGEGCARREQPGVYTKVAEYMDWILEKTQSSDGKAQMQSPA

Sequence: TAGAATACTCAAGCTTCGACGNNNNNNNNNNNNNNNNNNNNAGTTTGGATCCCCGGGTAC [unselected pentynyl-dU pool]
- Kd ([1]; 5-(1-pentynyl)-dU replacing T in amplified region, unit micro sign lost in print): > 10 µM

Sequence: TAGAATACTCAAGCTTCGACGNNNNNNNNNNNNNNNNNNNNAGTTTGGATCCCCGGGTAC [Round 6 pool prepared with thymidine]
- Kd [1]: > 10 µM

Sequence: CGGGGAGAGGTTGGTGTGGTTGGCAATGGCTAGAGTAGTGACGTTTTCGCGGTGAGGTCC
- binding signal (kallikrein): < 0.5 % bound

Sequence: TAGAATACTCAAGCTTCGACGNNNNNNNNNNNNNNNNNNNNAGTTTGGATCCCCGGGTAC [pentynyl-dU Round 6 pool]
- Kd ([1]; 5-(1-pentynyl)-dU replacing T in amplified region): 0.4 µM
